The results in this text go back to paper PMC7435230, “Selection of a Full Agonist Combinatorial Antibody that Rescues Leptin Deficiency In Vivo” (Advanced Science, 2020).

The target of test [1] is human leptin receptor tagged with eYFP, on HEK293 cells (Homo sapiens, UniProt P48357). Put plainly: cell-based or functional assay.
The target in test [2] is T1, extracellular domain of human leptin receptor with C-terminal human-Fc tag (human, UniProt P48357 22-839).
T1 chain: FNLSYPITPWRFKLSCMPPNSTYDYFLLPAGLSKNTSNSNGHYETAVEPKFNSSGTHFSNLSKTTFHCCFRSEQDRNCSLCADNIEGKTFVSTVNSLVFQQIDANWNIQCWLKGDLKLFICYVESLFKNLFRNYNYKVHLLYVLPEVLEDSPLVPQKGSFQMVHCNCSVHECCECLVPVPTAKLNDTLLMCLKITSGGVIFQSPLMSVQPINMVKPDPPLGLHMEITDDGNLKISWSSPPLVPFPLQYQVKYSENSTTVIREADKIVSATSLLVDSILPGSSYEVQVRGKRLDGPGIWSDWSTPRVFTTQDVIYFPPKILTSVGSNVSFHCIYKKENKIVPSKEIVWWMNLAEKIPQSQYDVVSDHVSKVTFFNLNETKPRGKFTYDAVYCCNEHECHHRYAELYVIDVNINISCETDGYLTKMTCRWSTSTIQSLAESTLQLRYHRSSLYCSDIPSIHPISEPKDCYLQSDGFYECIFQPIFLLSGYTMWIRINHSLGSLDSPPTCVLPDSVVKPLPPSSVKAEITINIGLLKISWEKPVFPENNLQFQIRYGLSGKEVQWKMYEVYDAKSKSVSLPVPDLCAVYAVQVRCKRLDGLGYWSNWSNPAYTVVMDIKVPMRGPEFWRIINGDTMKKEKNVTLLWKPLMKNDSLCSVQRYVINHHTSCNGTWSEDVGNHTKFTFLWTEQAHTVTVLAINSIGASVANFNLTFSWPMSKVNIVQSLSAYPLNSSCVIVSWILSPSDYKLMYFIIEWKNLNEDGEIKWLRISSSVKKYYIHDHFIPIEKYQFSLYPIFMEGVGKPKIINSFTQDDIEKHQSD
Put plainly: ELISA; competition with coated leptin, 20 nM hLepR-ECD-Fc.

In test [3] the target is T2, mLepR in mouse brain tissue sections (paraventricular nucleus of the hypothalamus) (Mus musculus, C57BL/6 (wild type, …, UniProt P48356)).
T2 construct: leptin receptor (LepR), mouse, endogenous in hypothalamus; Fixed tissue sections; also called LepR in tissue; source: endogenous, brain sections of wild type, ob/ob and db/db C57BL/6 mice
Nature of the test: immunostaining of cells or tissue; 30 um brain sections of wild type, ob/ob and db/db mice, fixed in 4% PFA; staining as for cells; paraventricular nucleus of the hypothalamus. To be noted: one partner purified.

The target in test [4] is T3, mouse leptin receptor tagged with eYFP, on HEK293 cells (Mus musculus, UniProt P48356).
T3 construct: leptin receptor (LepR), mouse; also called mLepR-eYFP; mLepR; source: HEK293, transiently transfected, on cells (fixed); not shown: eYFP, C-terminal, kept
Nature of the test: immunostaining of cells or tissue; transiently transfected HEK293 cells expressing LepR-eYFP, fixed in 4% PFA; primary antibodies 5 ug/mL at 4 C overnight; Alexa Fluor 555 goat anti-human IgG. To be noted: one partner purified.

Test [5] addresses T4, extracellular domain of human leptin receptor with C-terminal 6xHis tag (human, UniProt P48357).
T4 construct: leptin receptor (LepR), human, extracellular domain; also called hLepR-ECD; hLepR-ECD-His; source: HEK293F, purified from supernatant (HisTrap FF Crude); not shown: 6xHis, C-terminal, kept
Nature of the test: SPR; Biacore T200; LepR-ECD with His tag immobilised on CM5 chip by amine coupling; leptin-Fc and scFv-Fc antibodies in PBS pH 7.4, 1:2 serial dilutions, five concentrations, as analytes; 1:1 binding model. To be noted: both partners purified.

For test [6], the target named is T5, extracellular domain of mouse leptin receptor with C-terminal 6xHis tag (mouse, UniProt P48356).
T5 construct: leptin receptor (LepR), mouse, extracellular domain; also called mLepR-ECD; mLepR-ECD-His; source: HEK293F, purified from supernatant (HisTrap FF Crude); not shown: 6xHis, C-terminal, kept
Described as above. To be noted: both partners purified.

T3 sequence (P48356 22-1162): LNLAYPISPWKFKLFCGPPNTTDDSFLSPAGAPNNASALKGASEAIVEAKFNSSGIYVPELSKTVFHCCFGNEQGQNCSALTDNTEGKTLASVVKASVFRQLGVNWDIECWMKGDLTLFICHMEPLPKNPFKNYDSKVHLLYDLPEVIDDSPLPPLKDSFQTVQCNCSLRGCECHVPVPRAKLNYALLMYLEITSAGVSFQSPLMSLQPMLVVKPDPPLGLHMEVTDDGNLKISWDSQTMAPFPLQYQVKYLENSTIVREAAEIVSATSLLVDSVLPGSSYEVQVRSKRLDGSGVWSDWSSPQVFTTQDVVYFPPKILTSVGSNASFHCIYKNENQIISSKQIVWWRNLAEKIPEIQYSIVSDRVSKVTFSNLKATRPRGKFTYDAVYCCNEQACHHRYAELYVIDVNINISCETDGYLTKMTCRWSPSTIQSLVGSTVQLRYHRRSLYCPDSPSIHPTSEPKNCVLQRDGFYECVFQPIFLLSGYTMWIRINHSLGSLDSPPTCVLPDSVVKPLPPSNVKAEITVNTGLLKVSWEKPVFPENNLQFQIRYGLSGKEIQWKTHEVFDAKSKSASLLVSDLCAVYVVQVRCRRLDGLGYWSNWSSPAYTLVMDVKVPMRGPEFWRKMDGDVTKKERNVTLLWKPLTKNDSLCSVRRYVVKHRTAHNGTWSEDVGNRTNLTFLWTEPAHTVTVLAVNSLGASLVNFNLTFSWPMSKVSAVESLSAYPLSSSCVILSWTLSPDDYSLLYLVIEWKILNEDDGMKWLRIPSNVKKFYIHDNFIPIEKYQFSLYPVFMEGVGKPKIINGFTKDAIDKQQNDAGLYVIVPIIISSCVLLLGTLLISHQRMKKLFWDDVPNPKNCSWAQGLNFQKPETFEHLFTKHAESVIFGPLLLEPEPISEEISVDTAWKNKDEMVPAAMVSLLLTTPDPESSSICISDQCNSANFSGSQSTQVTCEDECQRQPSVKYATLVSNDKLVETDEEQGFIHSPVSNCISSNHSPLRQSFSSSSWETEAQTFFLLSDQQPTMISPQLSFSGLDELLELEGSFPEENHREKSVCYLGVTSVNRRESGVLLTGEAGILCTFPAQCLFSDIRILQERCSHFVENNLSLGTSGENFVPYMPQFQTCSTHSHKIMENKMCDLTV
T5 sequence (P48356 22-839): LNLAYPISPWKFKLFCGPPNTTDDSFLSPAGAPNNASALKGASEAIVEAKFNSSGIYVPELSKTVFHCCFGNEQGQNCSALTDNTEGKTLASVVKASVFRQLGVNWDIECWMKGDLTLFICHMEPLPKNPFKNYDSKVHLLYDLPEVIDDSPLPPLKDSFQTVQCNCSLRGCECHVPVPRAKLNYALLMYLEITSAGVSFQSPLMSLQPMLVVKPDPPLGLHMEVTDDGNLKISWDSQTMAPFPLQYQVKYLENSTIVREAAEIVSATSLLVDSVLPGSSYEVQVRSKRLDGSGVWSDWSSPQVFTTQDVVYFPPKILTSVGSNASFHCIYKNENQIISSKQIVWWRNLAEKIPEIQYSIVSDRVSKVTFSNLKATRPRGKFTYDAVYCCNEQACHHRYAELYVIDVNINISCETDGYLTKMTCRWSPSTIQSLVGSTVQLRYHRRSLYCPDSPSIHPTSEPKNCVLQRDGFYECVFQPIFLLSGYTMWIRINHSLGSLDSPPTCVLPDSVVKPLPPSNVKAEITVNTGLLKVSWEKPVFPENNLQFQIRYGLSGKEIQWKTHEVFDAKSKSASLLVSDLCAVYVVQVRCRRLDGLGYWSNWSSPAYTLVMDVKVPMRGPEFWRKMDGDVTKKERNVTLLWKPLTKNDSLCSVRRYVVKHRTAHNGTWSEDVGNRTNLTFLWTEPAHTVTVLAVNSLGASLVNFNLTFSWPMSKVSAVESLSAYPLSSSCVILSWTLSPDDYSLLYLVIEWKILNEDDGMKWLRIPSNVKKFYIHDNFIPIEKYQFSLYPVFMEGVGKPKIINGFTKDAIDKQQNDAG
T2 sequence (P48356 22-839): as above

B1: single-chain combinatorial antibody Ab06 (scFv-Fc) (scFv, V domains shown)
VH: QVQLVESGGGVVQPGRSLRLSCAASGFTFSSYGMHWVRQAPGKGLEWVAVISYDGSNKYYADSVKGRFTISRDNSKNTLYLQMNSLRAEDTAVYYCAKSLRNSFDYWGQGTLVTVSS
VL: EIVLTQSPGTLSLSPGERATLSCRASQSVSSNYLAWYQQKPGQAPRLLIYGASSRPTGIPDRFSGSGSGTDFTLTISRLEPEDFAVYYCQQYAASPLTFGGGTKLEIK
notes: identical to Ab11 except four residues in CDR3H; source: HEK293F, purified from supernatant (HiTrap Protein A)
With B1, in test [1], the “EC50, hLepR-luciferase (SIE luciferase reporter of STAT3 phosphorylation, HEK293)” value worked out at 3.2 nM. Further, the half-maximal inhibitory concentration (IC50) in test [2] was found to be 40 nM. In addition, the binding result in test [3] was “no binding”. The binding result in test [4] is listed as “no binding (tested: 5 ug/mL)”. Further, in test [5], the Kd turned out to be 7.5 nM, the off-rate constant (koff) worked out at 0.052 s⁻¹ and the kon came to 6.9e+06 M⁻¹ s⁻¹.

B2: single-chain combinatorial antibody Ab11 (scFv-Fc) (scFv, V domains shown)
VH: QVQLVESGGGVVQPGRSLRLSCAASGFTFSSYGMHWVRQAPGKGLEWVAVISYDGSNKYYADSVKGRFTISRDNSKNTLYLQMNSLRAEDTAVYYCAKGYENYFDYWGQGTLVTVSS
VL: EIVLTQSPGTLSLSPGERATLSCRASQSVSSNYLAWYQQKPGQAPRLLIYGASSRPTGIPDRFSGSGSGTDFTLTISRLEPEDFAVYYCQQYAASPLTFGGGTKLEIK
notes: CDR3H holds the motif ENYF; source: HEK293F, purified from supernatant (HiTrap Protein A)
Take B2: in test [6], the Kd worked out at 200 nM.
